Assay results published in publication PMC11091212.

How the values were obtained:
[1] = target: Microfibril-associated glycoprotein 4 (human) (UniProt P55083); assay: SPR; Ca2+ form (octamer): MFAP4 or MFAP4_(C34S) amine-coupled on CM5 (Biacore X), elastogenic proteins as analytes 5-100 µg/mL in TBS/Ca2+ (2 mM CaCl2); 1:1 Langmuir fit, KD is the average over five concentrations
[2] = target: Microfibril-associated glycoprotein 4 (human) (UniProt P55083); assay: SPR; Ca2+; details: domain or fragment

Chain of Microfibril-associated glycoprotein 4 (human) (P55083 22-255): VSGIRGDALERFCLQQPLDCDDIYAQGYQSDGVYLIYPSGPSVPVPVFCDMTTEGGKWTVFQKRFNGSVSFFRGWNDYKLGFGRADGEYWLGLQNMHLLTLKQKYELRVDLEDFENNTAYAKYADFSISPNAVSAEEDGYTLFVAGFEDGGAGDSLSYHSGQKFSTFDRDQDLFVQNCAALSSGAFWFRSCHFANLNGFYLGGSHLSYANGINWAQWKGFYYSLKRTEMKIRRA

Substance	Kd [1] [nM]	Kd [2] [nM]
latent transforming growth factor beta binding protein-4, short isoform (natural protein)	15	–
recombinant N-terminal half of fibrillin-1 (domain or fragment)	1.8	–
N-terminal half of LTBP4S	–	16
